Experiment in all cases: BLI
Conditions in all cases: modification not given

One test has as its target EphA2, P29317.
The next test addresses T1, EphB2, P29323.
T1 chain: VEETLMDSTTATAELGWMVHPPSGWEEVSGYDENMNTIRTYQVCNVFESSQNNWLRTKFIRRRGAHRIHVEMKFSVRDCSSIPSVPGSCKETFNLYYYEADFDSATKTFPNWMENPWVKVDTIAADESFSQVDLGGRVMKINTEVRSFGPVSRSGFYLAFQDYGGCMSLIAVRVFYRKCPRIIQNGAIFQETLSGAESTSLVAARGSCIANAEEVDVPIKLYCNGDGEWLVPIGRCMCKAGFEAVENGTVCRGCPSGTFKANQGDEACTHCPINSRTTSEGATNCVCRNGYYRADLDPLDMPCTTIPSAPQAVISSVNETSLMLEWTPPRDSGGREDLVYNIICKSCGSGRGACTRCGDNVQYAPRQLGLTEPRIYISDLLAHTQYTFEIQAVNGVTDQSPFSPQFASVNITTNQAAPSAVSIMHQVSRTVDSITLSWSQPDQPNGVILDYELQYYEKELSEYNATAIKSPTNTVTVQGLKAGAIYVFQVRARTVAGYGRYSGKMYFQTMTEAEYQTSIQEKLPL

In a further test the target is T2, EphB3, P54753.
T2 chain: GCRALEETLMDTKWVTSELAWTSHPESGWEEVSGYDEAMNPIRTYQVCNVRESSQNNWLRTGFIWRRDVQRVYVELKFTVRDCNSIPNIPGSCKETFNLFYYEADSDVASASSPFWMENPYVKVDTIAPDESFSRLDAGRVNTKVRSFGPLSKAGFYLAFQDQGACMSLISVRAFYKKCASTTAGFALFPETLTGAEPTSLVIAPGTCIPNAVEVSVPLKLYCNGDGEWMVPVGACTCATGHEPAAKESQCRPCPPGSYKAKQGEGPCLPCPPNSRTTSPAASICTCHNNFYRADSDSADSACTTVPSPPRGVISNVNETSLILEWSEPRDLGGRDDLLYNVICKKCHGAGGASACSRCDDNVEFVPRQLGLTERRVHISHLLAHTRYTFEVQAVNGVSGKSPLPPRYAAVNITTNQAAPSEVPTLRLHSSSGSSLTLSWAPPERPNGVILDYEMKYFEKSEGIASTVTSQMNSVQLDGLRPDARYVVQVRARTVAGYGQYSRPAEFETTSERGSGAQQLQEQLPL

Sequence of EphA2, P29317 (P29317 25-534): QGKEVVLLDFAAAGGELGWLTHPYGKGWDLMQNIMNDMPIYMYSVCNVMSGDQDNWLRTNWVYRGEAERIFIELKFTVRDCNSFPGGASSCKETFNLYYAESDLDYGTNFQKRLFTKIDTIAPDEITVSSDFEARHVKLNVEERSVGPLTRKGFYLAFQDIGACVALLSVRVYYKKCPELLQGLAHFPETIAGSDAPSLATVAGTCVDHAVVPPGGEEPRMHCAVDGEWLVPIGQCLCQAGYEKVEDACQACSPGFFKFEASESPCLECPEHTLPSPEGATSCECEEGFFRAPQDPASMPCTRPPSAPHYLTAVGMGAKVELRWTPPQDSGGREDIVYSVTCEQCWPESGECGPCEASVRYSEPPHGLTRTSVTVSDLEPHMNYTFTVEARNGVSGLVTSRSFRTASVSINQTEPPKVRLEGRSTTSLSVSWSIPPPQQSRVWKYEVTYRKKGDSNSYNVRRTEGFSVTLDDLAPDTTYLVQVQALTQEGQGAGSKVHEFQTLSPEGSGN

As to QEFSPNLWGLEFKKN [xEFN_RBD4], the Kd (in general, a measure of binding affinity in units of concentration) stood at 178 µM with EphA2, P29317; 263 µM with EphB2, P29323; 156 µM with EphB3, P54753.
In the test with EphB3, P54753, KFQLFSPFLWGFEF [xEFN_RBD2] came in with a dissociation constant Kd of 5070 µM. That is a millimolar value.

The values above are taken from US20250042968A1, “EPHRIN LIGAND MIMETIC PEPTIDES FOR THE TREATMENT OF NEURODEGENERATIVE DISEASES” (University of Miami, priority 2022, published 2025).
